Assay results from patent US20190322765A1 (Hoffmann-La Roche, published 2019).
Changes are numbered by the printed parent chain. In names and notes the source's numbering stands. Several values for one entry are separate records, joined by “and”; a condition that tells them apart may be missing. Equal entries are not always repeated.

B1: 4B9 Fab-IL-2 qm-Fab (other)
chain: EVQLLESGGGLVQPGGSLRLSCAASGFTFSSYAMSWVRQAPGKGLEWVSAIIGSGASTYYADSVKGRFTISRDNSKNTLYLQMNSLRAEDTAVYYCAKGWFGGFNYWGQGTLVTVSSASTKGPSVFPLAPSSKSTSGGTAALGCLVKDYFPEPVTVSWNSGALTSGVHTFPAVLQSSGLYSLSSVVTVPSSSLGTQTYICNVNHKPSNTKVDKKVEPKSCDSGGGGSGGGGSGGGGAPASSSTKKTQLQLEHLLLDLQMILNGINNYKNPKLTRMLTAKFAMPKKATELKHLQCLEEELKPLEEVLNGAQSKNFHLRPRDLISNINVIVLELKGSETTFMCEYADETATIVEFLNRWITFAQSIISTLTSGGGGSGGGGSGGGGEVQLLESGGGLVQPGGSLRLSCAASGFTFSSYAMSWVRQAPGKGLEWVSAIIGSGASTYYADSVKGRFTISRDNSKNTLYLQMNSLRAEDTAVYYCAKGWFGGFNYWGQGTLVTVSSASTKGPSVFPLAPSSKSTSGGTAALGCLVKDYFPEPVTVSWNSGALTSGVHTFPAVLQSSGLYSLSSVVTVPSSSLGTQTYICNVNHKPSNTKVDKKVEPKSCD
light: EIVLTQSPGTLSLSPGERATLSCRASQSVTSSYLAWYQQKPGQAPRLLINVGSRRATGIPDRFSGSGSGTDFTLTISRLEPEDFAVYYCQQGIMLPPTFGQGTKVEIKRTVAAPSVFIFPPSDEQLKSGTASVVCLLNNFYPREAKVQWKVDNALQSGNSQESVTEQDSKDSTYSLSSTLTLSKADYEKHKVYACEVTHQGLSSPVTKSFNRGEC
notes: Fab-IL-2-Fab immunoconjugate against FAP with quadruple mutant IL-2
B2: 14B3 Fab-IL-2 qm-Fab (other)
chain: B1 chain with I52L, G53A, S57I, I436L, G437A, S441I
light: B1 light
notes: as for B1
B3: 4B9 Fab (Fab, V domains shown)
VH: EVQLLESGGGLVQPGGSLRLSCAASGFTFSSYAMSWVRQAPGKGLEWVSAIIGSGASTYYADSVKGRFTISRDNSKNTLYLQMNSLRAEDTAVYYCAKGWFGGFNYWGQGTLVTVSS
VL: EIVLTQSPGTLSLSPGERATLSCRASQSVTSSYLAWYQQKPGQAPRLLINVGSRRATGIPDRFSGSGSGTDFTLTISRLEPEDFAVYYCQQGIMLPPTFGQGTKVEIK
B4: 14B3 Fab (Fab, V domains shown)
VH: B3 VH with I52L, G53A, S57I
VL: EIVLTQSPGTLSLSPGERATLSCRASQSVTSSYLAWYQQKPGQAPRLLINVGSRRATGIPDRFSGSGSGTDFTLTISRLEPEDFAVYYCQQGIMLPPTFGQGTKVEIKR
notes: Cleaved Fab fragment
B5: 29B11 Fab (Fab, V domains shown)
VH: B3 VH with A56G, S57I
VL: B4 VL
notes: Cleaved Fab fragment
B6: 4G8 IgG (antibody, V domains shown)
VH: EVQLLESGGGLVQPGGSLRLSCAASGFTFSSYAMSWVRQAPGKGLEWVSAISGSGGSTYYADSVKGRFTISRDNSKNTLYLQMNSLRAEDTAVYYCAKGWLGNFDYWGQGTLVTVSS
VL: B3 VL with T30S, S31R, N50I, V51G, G52A, R54T, I93Q, M94V, L95I
B7: 28H1 IgG (antibody, V domains shown)
VH: EVQLLESGGGLVQPGGSLRLSCAASGFTFSSHAMSWVRQAPGKGLEWVSAIWASGEQYYADSVKGRFTISRDNSKNTLYLQMNSLRAEDTAVYYCAKGWLGNFDYWGQGTLVTVSS
VL: B3 VL with T30S, S31R, N50I, V51G, G52A, R54T, I93Q, M94V, L95I
notes: also called unmodified 28H1 IgG antibody
B8: 3F2 Fab (Fab, V domains shown)
VH: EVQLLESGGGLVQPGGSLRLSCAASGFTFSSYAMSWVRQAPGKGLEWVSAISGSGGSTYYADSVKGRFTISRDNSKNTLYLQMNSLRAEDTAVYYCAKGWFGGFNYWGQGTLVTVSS
VL: B4 VL
B9: 28H1 Fab (Fab, V domains shown)
VH: B7 VH
VL: B4 VL with T30S, S31R, N50I, V51G, G52A, R54T, I93Q, M94V, L95I
notes: Cleaved Fab fragment
B10: 4G8 Fab (Fab, V domains shown)
VH: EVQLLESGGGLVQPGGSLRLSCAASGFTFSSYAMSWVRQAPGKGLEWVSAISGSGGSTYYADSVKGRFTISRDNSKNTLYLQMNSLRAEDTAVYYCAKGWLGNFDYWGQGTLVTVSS
VL: B4 VL with T30S, S31R, N50I, V51G, G52A, R54T, I93Q, M94V, L95I
B11: Naked IL-2 qm (quadruple mutant T3A/F42A/Y45A/L72G, His-tagged) (ligand)
chain: APASSSTKKTQLQLEHLLLDLQMILNGINNYKNPKLTRMLTAKFAMPKKATELKHLQCLEEELKPLEEVLNGAQSKNFHLRPRDLISNINVIVLELKGSETTFMCEYADETATIVEFLNRWITFAQSIISTLTVDHHHHHH
notes: also called naked IL-2 quadruple mutant; quadruple mutant IL-2
B12: human IL-2R α-subunit, monomeric, with AcTev cleavage site and Avi His tag (receptor)
chain: ELCDDDPPEIPHATFKAMAYKEGTMLNCECKRGFRRIKSGSLYMLCTGNSSHSSWDNQCQCTSSATRNTTKQVTPQPEEQKERKTTEMQSPMQPVDQASLPGHCREPPPWENEATERIYHFVVGQMVYYQCVQGYRALHRGPAESVCKMTHGKTRWTQPQLICTGVDEQLYFQGGSGLNDIFEAQKIEWHEARAHHHHHH
notes: also called Hu IL-2R α; CD25

Tests used:
[1] = biological target: FAP on GM05389 fibroblasts; assay: FACS on GM05389 fibroblasts, surface-bound construct detected with secondary antibody after the times shown (internalization analysis); concentration not shown
[2] = biological target: T1, human FAP expressed on stably transfected HEK293 cells (human, UniProt Q12884 1-760); assay: FACS on HEK 293-human FAP cells, median fluorescence against concentration
T1 construct: whole, on cells
Procedure: Briefly, 250 000 cells per well were incubated with the indicated concentration of the immunoconjugates in a round-bottom 96-well plate, incubated for 30 min at 4° C., and washed once with PBS/0.1% BSA.

[3] = biological target: T2, human DPPIV on transfected HEK 293 cells (human, UniProt P27487 1-766); assay: FACS on HEK 293-human DPPIV cells, with HEK mock-transfected cells, cells only and sec. antibody as controls; concentration not shown
T2 construct: whole, on cells; also called CD26

murine FAP-His = biological target: T3, murine FAP-His (murine, UniProt P97321 27-761); assay: SPR, FAP-His captured via anti-His, Fab analyte, 1:1 fit, 25°C
T3 construct: not shown: His tag

cynomolgus FAP-His [4] = biological target: cynomolgus FAP-His (cynomolgus); assay: as above
Procedure: The FAP binding activity of the cleaved Fab fragments used in these examples as antigen binding, moieties was determined by surface plasmon resonance (SPR) on a Biacore machine. […] Temperature was 25° C. and HBS-EP was used as buffer. […] Fitting was performed based on a 1:1 binding model, RI=0, Rmax=local (because of capture format).

human FAP-His [5] = biological target: T4, human FAP-His (human, UniProt Q12884 27-760); assay: as above
T4 construct: also called Hu FAP; His-tagged human FAP; not shown: His tag

human FAP-His [6] = biological target: T4, human FAP-His; assay: SPR, His-tagged human FAP captured via anti-His, apparent bivalent affinity (avidity), 25°C
Procedure: Temperature was 25° C. and HBS-EP was used as buffer. Analyte concentration was 50 nM down to 0.05 nM at a flow rate of 50 μl/min (association: 300 s, dissociation: 900 s, regeneration: 60 s, with 10 mM glycine pH 2). Fitting was performed based on a 1:1 binding model, RI=0, Rmax=local (because of capture format).

cynomolgus FAP-His [7] = biological target: cynomolgus FAP-His (cynomolgus); assay: SPR, FAP-His captured via anti-His, Fab analyte, steady state, 25°C
human FAP-His [8] = biological target: T4, human FAP-His; assay: as above
[9] = biological target: T5, human IL-2R βγ heterodimer, subunit-Fc knobs-into-holes fusion (human); assay: SPR, receptor on CM5, IL-2 analyte, 25°C, kinetic
T5 construct: The entries may hold a leader peptide; also called Hu IL-2R βγ; human IL2-R β knob γ hole heterodimer
Procedure: (§1) Subsequently, affinity for the IL-2R βγ heterodimer and the IL-2R α-subunit were determined by surface plasmon resonance (SPR). Briefly, the ligand—either human IL-2R α-subunit (Fc2) or human IL2-R β knob γ hole heterodimer (Fc3)—was immobilized on a CM5 chip. […] Flow rate was 30 l/min and the following conditions were applied for association: 180s, dissociation: 300 s, and regeneration: 2×30 s 3M MgCl₂ for IL2-R β knob γ hole heterodimer, 10 s 50 mM NaOH for IL-2R α-subunit.

[10] = biological target: B12; assay: SPR, receptor on CM5, kinetic
[11] = biological target: T6, Proleukin (Novartis/Chiron), commercially available wild-type IL-2 (UniProt P60568 22-153); assay: SPR, receptor on CM5, IL-2 analyte, 25°C, steady state
T6 sequence (P60568 other isoform, or with tags, fused parts or gaps limits assumed, form in doubt): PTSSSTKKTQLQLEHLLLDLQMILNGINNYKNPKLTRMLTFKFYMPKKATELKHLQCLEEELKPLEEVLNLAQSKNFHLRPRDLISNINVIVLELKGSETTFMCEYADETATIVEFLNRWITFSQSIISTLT
Procedure: as §1

[12] = biological target: T6, Proleukin (Novartis/Chiron), …; assay: SPR, receptor on CM5, IL-2 analyte, 25°C, kinetic
Procedure: as §1

Does B1 bind [1]?
Result: binds

Does B1 bind [2]?
Result: binds

Does B1 bind [3]?
Result: no binding

Does B2 bind [1]?
Result: binds

What about the “EC50 (read off the curve)” value [2] of the same binder?
Its value is ~20 nM.

Does B2 bind [3]?
Result: no binding

Which Kd (murine FAP-His) does the source give for B3 here?
The Kd was 5 nM and 5.2 nM.

What about the Kd (cynomolgus FAP-His [4]) of the same binder?
The Kd was 0.23 nM and 0.24 nM.

And the Kd (human FAP-His [5])?
Its Kd is 0.3 nM and 0.31 nM.

With B4 as the binder, how does the Kd (murine FAP-His) read?
Its Kd is 4.7 nM.

And the Kd (cynomolgus FAP-His [4])?
Its Kd is 0.59 nM and 0.61 nM.

What about the Kd (human FAP-His [5]) of the same binder?
Its Kd is 0.47 nM.

With B5 as the binder, how does the Kd (murine FAP-His) read?
Its Kd is 1.3 nM and 1.2 nM.

And the Kd (cynomolgus FAP-His [4])?
The Kd was 0.21 nM and 0.2 nM.

And the Kd (human FAP-His [5])?
The Kd was 0.19 nM.

Which Kd (human FAP-His [6]) does the source give for B6 here?
Its Kd is 0.05 nM.

How did the Kd (human FAP-His [6]) turn out when B7 was run?
Its Kd is 0.2 nM.

How did the Kd (murine FAP-His) turn out when B8 was run?
Its Kd is 8.9 nM and 9.5 nM.

What about the Kd (cynomolgus FAP-His [4]) of the same binder?
Its Kd is 4.7 nM and 5.3 nM.

And the Kd (human FAP-His [5])?
Its Kd is 6 nM.

Which results are given for B9?
Kd (murine FAP-His): 0.13 nM and 0.18 nM; Kd (human FAP-His [5]): 2.6 nM

Which Kd (cynomolgus FAP-His [7]) does the source give for B10 here?
Its Kd is 33 nM and 34 nM.

What about the Kd (human FAP-His [8]) of the same binder?
The Kd was 48 nM.

And the Kd (murine FAP-His)?
Its Kd is 0.07 nM.

And the Kd (cynomolgus FAP-His [4])?
Its Kd is 33 nM and 35 nM.

What about the Kd (human FAP-His [5]) of the same binder?
The Kd was 53 nM and 51 nM.

B11 was tested. Which Kd [9] did it give?
Its Kd is 2.7 nM and 2 nM.

Does B11 bind [10]?
Result: no binding (tested: 300 nM)

For B12, which Kd [11] is on record?
Its Kd is 19 nM and 17.8 nM.

And the Kd [12]?
The Kd was 7.5 nM and 12.5 nM.
